In article PMC7242495:

Tested on: T1, CadR (Pseudomonas aeruginosa), ORF:ef015ded
T1 sequence: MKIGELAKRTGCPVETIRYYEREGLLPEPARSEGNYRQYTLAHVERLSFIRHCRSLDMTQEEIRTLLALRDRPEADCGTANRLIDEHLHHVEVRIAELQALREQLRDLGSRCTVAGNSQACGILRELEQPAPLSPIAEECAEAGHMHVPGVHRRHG
Experiment: EMSA
Details: EMSA: 10 mM Tris pH 8.0, 40 mM KCl, 10 mM MgCl2, 1 mM DTT, 5% glycerol, 250 nM CadR, 25 ng DNA, +/- Zn or EDTA, 30 min room temperature, gel at 4 C …

Sequence | binding
CCATGATCATGTCCGTGACCGTGACCGTGACAGCAAGTGTCGGCGTGTTCGTGGCTCATGGAAACAATTCCCGTTTGACGTGTTGGGTGCGATTGCACACCCTGTAGCAACTACAGAGTCAAGCGGTACTGCCAATTCGGGTAGCCGCGTCGGCGATTGGAGGAGGGTTGGCATGAAGATCGGTGAGCTGGCGAAGAGAACCGGTT (double strand) [pcadA WT promoter (EMSA)] | binds
GCTTCCGGTCAGCAGCAACGCCCATTTCAGGCGGGTCGAGTTGGTCTGGGCGAAGCTGTGCTCGTGTCCGGCGCTCATGGCGGCTCCTGTGGGGCGGTGGCGGCAGCACCAGCCTACAGGATAGGCAATTGCAAAACTGTCATGCGCCGGGCCGCTCTGGCGCGGCGTCCGCCGCTCCGCTAACCTGCGGCTCAGGCGCGGCCGCAGCCGCGCACGGAACGAGGGGGACGCATGACTCAACAGCACGA (double strand) [pczcD] | no binding
